Target: T1, human CCR1-EGFP expressed on HEK293T cells (human, UniProt P32246 1-355)
T1 construct: whole, on cells; Transiently transfected HEK293T cells; the fusion localized to the cell membrane; also called CCR1-expressing cells; not shown: EGFP from the pEGFP-N1 vector
T1 sequence (looked up): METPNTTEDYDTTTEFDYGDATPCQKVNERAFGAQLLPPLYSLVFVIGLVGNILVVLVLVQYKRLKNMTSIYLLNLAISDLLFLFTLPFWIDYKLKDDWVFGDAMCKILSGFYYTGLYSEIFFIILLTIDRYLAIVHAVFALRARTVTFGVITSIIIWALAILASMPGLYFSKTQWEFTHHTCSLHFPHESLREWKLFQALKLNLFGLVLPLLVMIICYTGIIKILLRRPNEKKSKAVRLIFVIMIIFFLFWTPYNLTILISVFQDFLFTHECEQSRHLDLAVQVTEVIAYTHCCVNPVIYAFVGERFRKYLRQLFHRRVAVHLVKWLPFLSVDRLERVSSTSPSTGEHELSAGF
Test: flow cytometry (FACS) on CCR1-EGFP-transfected HEK293T cells, detection with FITC anti-tag antibody
Method: Human CCR5 was amplified and cloned into to pEGFP-N1 vector. Human CCR1 receptor, also a CC chemokine receptor, was included as a control. HEK293T cells were transfected with CCR5-EGFP or CCR1-EGFP plasmids and 1d after transfection, cells were washed with PBS and detached from culture dish by trypsin. 1×10″6 cells were put into FACS tube in 100 μl complete media and kept on ice (cells were kept cold for remainder of the assay). Cells were treated with recombinant HRS-SV11 protein for 45′. Then cells were washed once with 1 ml staining buffer (1×PBS+3% FBS) and spin down at 4° C., 400×g for 10′. After wash, cells were incubated with 0.3 μl primary anti-V5-FITC antibody (3 μg/ml) in 100 μl staining buffer for 30′ in dark (kept in dark for remainder of the assay). Cells were then washed twice with 1 ml staining buffer, 4° C., 400×g for 10′ and spun down. After the final wash, cell pellets were resuspended in 800 μl staining buffer and analyzed immediately by FACS.

B1: recombinant HRS-SV11 splice variant polypeptide of human histidyl-tRNA synthetase with C-terminal polyhistidine tag (6xHis) (ligand)
chain: MAERAALEELVKLQGERVRGLKQQKASAELIEEEVAKLLKLKAQLGPDESKQKFVLKTPKALEEKIRTTETQVLVASAQKKLLEERLKLVSELWDAGIKAELLYKKNPKLLNQLQYCEEAGIPLVAIIGEQELKDGVIKLRSVTSREEVDVRREDLVEEIKRRTGQPLCICHHHHHH
notes: Expressed in E. coli from pET20b (EcoRV/NotI, no stop codon) and purified on Ni-NTA; By gel filtration it switches between monomer and dimer; also called wild type HRS-SV11
- binding result: no binding

Reference: patent US20100297149A1 (ATYR PHARMA, published 2010)
